The source of these data is patent US20240400690A1 (BIO THERA SOLUTIONS, published 2024).

Experiment [1] deals with T1, mouse B7-H3 (SinoBiological, 50973-M08H) (mouse, UniProt Q8VE98 29-244).
T1 construct: Bought reagent
T1 sequence (looked up): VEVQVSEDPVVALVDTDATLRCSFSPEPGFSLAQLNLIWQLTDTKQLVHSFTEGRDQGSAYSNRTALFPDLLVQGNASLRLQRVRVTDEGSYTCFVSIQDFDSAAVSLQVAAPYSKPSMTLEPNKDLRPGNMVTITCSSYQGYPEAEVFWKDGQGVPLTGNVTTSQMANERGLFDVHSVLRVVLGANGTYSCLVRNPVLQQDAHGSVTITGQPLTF
Put plainly: ELISA, antigen coated at 2 µg/mL; Table 13 prints EC50 as NA. On the procedure:
The day before the experiment, the target antigens cynomolgus monkey B7-H3 (novoprotein CA61), mouse B7-H3 (SinoBiological, 50973-M08H) and hB7-H3-his were each diluted to 2 μg/mL with 1×PBS and added to a ELISA plate (96-well plate) at 100 μL/well (two rows for each antigen), and the wells were coated overnight at 4° C.
(In general: In an ELISA, binding on a coated surface is turned into a signal by an enzyme label.)

Experiment [2] deals with T2, B7-H3 on tumour cells (MDA-MB-468 cells, N87 cells) (UniProt Q5ZPR3 29-534, limits assumed).
T2 construct: whole, on cells
T2 sequence (looked up): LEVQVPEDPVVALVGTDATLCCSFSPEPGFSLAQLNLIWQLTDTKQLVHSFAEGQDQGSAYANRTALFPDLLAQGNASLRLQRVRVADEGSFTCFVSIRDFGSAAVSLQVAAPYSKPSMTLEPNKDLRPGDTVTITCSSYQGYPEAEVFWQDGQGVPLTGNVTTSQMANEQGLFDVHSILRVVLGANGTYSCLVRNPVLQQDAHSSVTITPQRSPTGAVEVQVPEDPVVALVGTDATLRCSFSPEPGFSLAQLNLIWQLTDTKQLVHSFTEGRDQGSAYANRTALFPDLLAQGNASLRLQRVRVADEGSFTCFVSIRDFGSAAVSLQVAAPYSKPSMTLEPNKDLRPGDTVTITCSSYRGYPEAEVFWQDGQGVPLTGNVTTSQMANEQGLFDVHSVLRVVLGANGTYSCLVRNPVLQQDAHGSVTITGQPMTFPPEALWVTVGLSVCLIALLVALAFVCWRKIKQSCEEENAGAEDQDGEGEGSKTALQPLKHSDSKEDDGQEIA
Put plainly: flow cytometry on MDA-MB-468 cells, PE goat anti-human IgG Fc secondary; blank 0.9% in the positive gate. On the procedure:
MDA-MB-468 cells in logarithmic phase were collected and centrifuged at 1500 rpm for 5 min, and the supernatant was removed. The cells were resuspended in 1×PBS and centrifuged at 1500 rpm for 5 min, and the supernatant was removed, and then the procedure was repeated once. MDA-MB-468 cells were added to a V-bottom 96-well plate at 50 μL/well (200,000 cells) and centrifuged at 1500 rpm for 5 min, and PBS was discarded; the humanized antibody diluted in gradient (initial concentration of 100 nM, 3-fold gradient dilution, 1×PBS as the vehicle) was added at 100 μL/well; the cells were resuspended, and incubated on ice for 1 h; after the incubation was completed, the cells were centrifuged at 2000 rpm for 5 min, and the supernatant was removed; the cells were resuspended in 1×PBS added at 200 µL/well and centrifuged again and the supernatant was removed, and the procedure was repeated twice; a PE-labeled goat anti-human IgG Fc secondary antibody (Invitrogen, cat #12-4998-82, diluted with 1×PBS at 1:500) was added at 100 μL/well; the cells were resuspended, and incubated for 30 min on ice in the absence of light; after the incubation was completed, the cells were centrifuged at 2000 rpm for 5 min, and the supernatant was removed; the cells were resuspended in 1×PBS added at 200 μL/well and centrifuged again and the supernatant was removed, and the procedure was repeated twice; 1×PBS was then added at 200 μL/well to resuspend the cells; the detection was performed with a cytoflex flow cytometer (Beckman).
A general note: A flow cytometer gives signals particle by particle.

B1: antibody V3 (antibody, human IgG1, kappa, V domains shown)
VH: EVQLVQSGAEVKKSGESLKISCKASGYTFTDYDINWVRQMPGKGLEWIGWIFPGDDTTKYNEKFKGQVTLSADKSTNTAYMQWSSLKASDTAMYYCARSPSFDYWGQGTLVTVSS
VL: QIVLTQSPGTLSLSPGERATLSCSASSTIGFMYWYQQKPGQAPRRWIYDTSKLASGVPDRFSGSGSGTDYTLTISRLEPEDFAVYYCHQRSSYPTFGQGTKVEIKR
notes: Humanized from chimeric antibody M1; expressed in HEK293F cells; also called humanized antibody V3
Consider B1, for which the binding result in experiment [1] is on record as “no binding”. In experiment [2], the “% of cells in positive gate V1-R at 0.411 nM” value stood at 36.8%, the “% of cells in positive gate V1-R at 1.23 nM” value was found to be 86.4%, the “% of cells in positive gate V1-R at 3.7 nM” value was determined as 94% and the “% of cells in positive gate V1-R at 11.11 nM” value was 97.2%. In addition, in experiment [2], the “% of cells in positive gate V1-R at 33.33 nM” value is 98.9% and the “% of cells in positive gate V1-R at 100 nM” value was determined as 99.6%.
